The values that follow come from article PMC6204840.

pEC50, pKd: −log10 of the molar value.

The target of experiment [1] is Fcγ receptor IIIa (V176 or F176, not told which) (UniProt P08637). As to the kind of experiment: ELISA. (ELISA stands for enzyme-linked immunosorbent assay.)
For experiment [2] the target is unchanged.
The target in experiment [3] is motavizumab IgG1 with Fc variant DF197 (human). The experiment can be described thus: SPR. A general note: SPR reads the build-up and loss of mass on a sensor chip optically.
Experiment [4] has as its target motavizumab IgG1 with Fc variant DF215 (human). The experiment can be described thus: SPR.
Experiment [5] deals with motavizumab IgG1 with wild type Fc (human). The experiment can be described thus: SPR.
The target of experiment [6] is motavizumab IgG1 with Fc variant DF213 (human). The experiment can be described thus: SPR.
The target of experiment [7] is motavizumab IgG1 with Fc variant DF183 (human). The experiment can be described thus: SPR.
In experiment [8] the target is soluble human neonatal Fc receptor (FcRn alpha chain extracellular domain + beta2-microglobulin) (UniProt P55899+P61769). As to the kind of experiment: SPR. Particulars: pH 6.0, PBS (concentration not stated), adjusted to pH 6.0 or pH 7.4.
Experiment [9] concerns the target recombinant cynomolgus monkey FcRn (cynomolgus monkey) (UniProt Q8SPV9). The experiment can be described thus: BLI. In general terms: In BLI a coated tip is dipped into the sample, and binding shifts an interference pattern.
UniProt Q8SPV9, sequence (Q8SPV9 24-297, chain 1 of 2): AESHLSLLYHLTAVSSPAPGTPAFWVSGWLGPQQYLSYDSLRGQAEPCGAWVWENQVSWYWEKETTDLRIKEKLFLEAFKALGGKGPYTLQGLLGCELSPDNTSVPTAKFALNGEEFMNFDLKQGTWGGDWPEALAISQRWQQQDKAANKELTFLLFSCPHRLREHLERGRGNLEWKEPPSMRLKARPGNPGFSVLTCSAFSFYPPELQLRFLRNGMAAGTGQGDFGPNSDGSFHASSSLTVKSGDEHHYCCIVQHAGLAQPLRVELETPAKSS
UniProt Q8SPV9, sequence (Q8SPW0 21-119, chain 2 of 2, further chain): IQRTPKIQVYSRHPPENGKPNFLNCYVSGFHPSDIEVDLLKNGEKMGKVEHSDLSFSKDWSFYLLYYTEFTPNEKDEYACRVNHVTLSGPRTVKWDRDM

UniProt P08637, sequence (P08637 17-208): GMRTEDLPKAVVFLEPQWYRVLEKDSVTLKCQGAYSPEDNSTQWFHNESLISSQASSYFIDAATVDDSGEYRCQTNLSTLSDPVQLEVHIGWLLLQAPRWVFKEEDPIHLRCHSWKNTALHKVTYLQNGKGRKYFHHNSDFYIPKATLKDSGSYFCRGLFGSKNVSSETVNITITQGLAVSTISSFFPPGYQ

Usually pEC50 stands for −log10 of the EC50, conventionally taken in molar units. Consider “rituximab IgG1 with Fc variant DF228 (antibody)”, for which the pEC50 in experiment [1] was 6.81. Also, the ADCC EC50 (ADCC Reporter Bioassay, rituximab Fab, WIL2-S cells) in [2] is 2.66 ng/mL.
“rituximab IgG1 with wild type Fc (antibody)” showed a negative logarithm of the EC50 (pEC50) in experiment [1] of 6.27.
In the case of “rituximab IgG1 with Fc variant DF213 (antibody)”, the pEC50 in [1] is 6.86. The same substance returned an ADCC EC50 (ADCC Reporter Bioassay, rituximab Fab, WIL2-S cells) in experiment [2] of 4.01 ng/mL.
The matching figures for “rituximab IgG1 with Fc variant DF183 (antibody)”: 7.06 and 3.92 ng/mL.
What is called pKd is the Kd on a negative log10 scale, so that one unit is a factor of ten. As for “recombinant human FcRn heterodimer (α-FcRn extracellular domain with β2M) (from UniProt P55899 24-297; P61769 21-119) (complex)”, the negative-log Kd (pKd) in experiment [3] was 7.68; in [4], 7.72; in experiment [5], 6.08; in [6] it was 7.62; in [7] it was 7.68.
In the case of “motavizumab IgG1 DF213 H285D;T307Q;A378V”, in experiment [8], the ka was 800000 M⁻¹ s⁻¹ and the kd is 0.0192 s⁻¹.
“rituximab IgG1 with Fc variant LS (antibody)”: in [1], the pEC50 is 6.72.
Regarding “motavizumab with wild type human IgG1 Fc (antibody)”, the pKd in experiment [9] is 7.86.
Take “motavizumab IgG1 DF215 T307Q;Q311V;A378V”: in [8], the ka was found to be 1.37e+06 M⁻¹ s⁻¹ and the kd turned out to be 0.027 s⁻¹.
“rituximab IgG1 with Fc variant DF197 (antibody)” showed a pEC50 in [1] of 7.01. Also, in [2], the ADCC EC50 (ADCC Reporter Bioassay, rituximab Fab, WIL2-S cells) turned out to be 8.3 ng/mL.
For the substance “motavizumab IgG1 DF228 T256D;H286D (as printed; probably N286D);T307R;Q311V;A378V”, in experiment [8], the ka stood at 1.39e+06 M⁻¹ s⁻¹ and the kd amounted to 0.0142 s⁻¹.
Turning to “rituximab IgG1 with Fc variant YTE (antibody)”, the pEC50 in experiment [1] is 5.99. For the same substance, in [2], the ADCC EC50 (ADCC Reporter Bioassay, rituximab Fab, WIL2-S cells) is 15 ng/mL.
Substance “rituximab IgG1 with Fc variant DF215 (antibody)” showed a pEC50 in [1] of 6.85. The substance also had an ADCC EC50 (ADCC Reporter Bioassay, rituximab Fab, WIL2-S cells) in experiment [2] of 2.73 ng/mL.
Take “motavizumab IgG1 DF197 H285N;T307Q;N315D”: in experiment [8], the ka was 1.59e+06 M⁻¹ s⁻¹ and the kd is 0.0328 s⁻¹.
For the substance “motavizumab IgG1 DF183 T256D;Q311V;A378V”, in experiment [8], the ka is 1.93e+06 M⁻¹ s⁻¹ and the kd stood at 0.0402 s⁻¹.
